Assay results: PMC13276077

Tests used:
[1] = target: T1, MeCP2 MBD;histone octamer (Homo sapiens;Homo sapiens, UniProt P51608;P0C0S8;P62807;P68431;P62805 77-167;2-130;2-126;2-136;2-103, |H3.1 C96S;C110A); experiment: EMSA; 20 mM HEPES pH 7.5, 75 mM NaCl, 125 mM KCl, 50 uM EDTA, 2.5 mM beta-mercaptoethanol, 5% glycerol, BSA, 1.58 uM 47 bp competitor DNA (nucleosome assays); absent w
[2] = target: MeCP2 full-length, e2 isoform;histone octamer (Homo sapiens;, UniProt P51608;P0C0S8;P62807;P68431;P62805 1-486;2-130;2-126;2-136;2-103, |H2B T115C;H3.1 C96S;C110A); experiment: as above
[3] = target: MeCP2 full-length, e2 isoform;histone H1.0 25-97;histone octamer (Homo sapiens;Homo sapiens;, UniProt P51608;P07305;P0C0S8;P62807;P68431;P62805 1-486;25-97;2-130;2-126;2-136;2-103, ||H2B T115C;H3.1 C96S;C110A); experiment: EMSA; H1.0 residues 25-97 pre-bound (chromatosome); 20 mM HEPES pH 7.5, 75 mM NaCl, 125 mM KCl, 50 uM EDTA, 2.5 mM beta-mercaptoethanol, 5% glycerol, BSA, 1.58 uM 47 bp competitor DNA (nucleosome assays); absent w
[4] = target: T2, MeCP2 MBD;histone octamer, tailless H3 (Homo sapiens;Homo sapiens, UniProt P51608;P0C0S8;P62807;P68431;P62805 77-167;2-130;2-126;26-136;2-103, |H3.1 del1-24;A25C;C96S;C110A); experiment: EMSA; H3-tailless histone octamer; 20 mM HEPES pH 7.5, 75 mM NaCl, 125 mM KCl, 50 uM EDTA, 2.5 mM beta-mercaptoethanol, 5% glycerol, BSA, 1.58 uM 47 bp competitor DNA (nucleosome assays); absent w
[5] = target: MeCP2 full-length, e2 isoform;histone H1.0 1-97;histone octamer (Homo sapiens;Homo sapiens;, UniProt P51608;P07305;P0C0S8;P62807;P68431;P62805 1-486;1-97;2-130;2-126;2-136;2-103, ||H2B T115C;H3.1 C96S;C110A); experiment: EMSA; H1.0 residues 1-97 pre-bound (chromatosome); 20 mM HEPES pH 7.5, 75 mM NaCl, 125 mM KCl, 50 uM EDTA, 2.5 mM beta-mercaptoethanol, 5% glycerol, BSA, 1.58 uM 47 bp competitor DNA (nucleosome assays); absent w
[6] = target: T3, MeCP2 MBD;histone octamer, H3Kc27me3 (Homo sapiens;Homo sapiens, UniProt P51608;P0C0S8;P62807;P68431;P62805 77-167;2-130;2-126;2-136;2-103, |H3.1 K27C (trimethyl-lysine analogue, Kc27me3);C96S;C110A); experiment: EMSA; H3K27me3 (H3Kc27me3) histone octamer; 20 mM HEPES pH 7.5, 75 mM NaCl, 125 mM KCl, 50 uM EDTA, 2.5 mM beta-mercaptoethanol, 5% glycerol, BSA, 1.58 uM 47 bp competitor DNA (nucleosome assays); absent w
[7] = target: MeCP2 full-length, e2 isoform;histone octamer, H3Kc27me3 (Homo sapiens;Homo sapiens, UniProt P51608;P0C0S8;P62807;P68431;P62805 1-486;2-130;2-126;2-136;2-103, |H3.1 K27C (trimethyl-lysine analogue, Kc27me3);C96S;C110A); experiment: EMSA; H3K27me3 histone octamer; no competitor DNA; 20 mM HEPES pH 7.5, 75 mM NaCl, 125 mM KCl, 50 uM EDTA, 2.5 mM beta-mercaptoethanol, 5% glycerol, BSA, 1.58 uM 47 bp competitor DNA (nucleosome assays); absent w
[8] = target: T3, MeCP2 MBD;histone octamer, H3Kc27me3; experiment: as above
[9] = target: MeCP2 full-length, e2 isoform;histone octamer, tailless H3 (Homo sapiens;Homo sapiens, UniProt P51608;P0C0S8;P62807;P68431;P62805 1-486;2-130;2-126;26-136;2-103, |H3.1 del1-24;A25C;C96S;C110A); experiment: EMSA; H3-tailless histone octamer; no competitor DNA; 20 mM HEPES pH 7.5, 75 mM NaCl, 125 mM KCl, 50 uM EDTA, 2.5 mM beta-mercaptoethanol, 5% glycerol, BSA, 1.58 uM 47 bp competitor DNA (nucleosome assays); absent w
[10] = target: T2, MeCP2 MBD;histone octamer, tailless H3; experiment: as above
[11] = target: MeCP2 full-length, e2 isoform;histone octamer, acidic patch mutant (Homo sapiens;Homo sapiens, UniProt P51608;P0C0S8;P62807;P68431;P62805 1-486;2-130;2-126;2-136;2-103, |H2A E61A;E91A;E92A;H2B E113A;H3.1 C96S;C110A); experiment: EMSA; acidic patch mutant histone octamer; no competitor DNA; 20 mM HEPES pH 7.5, 75 mM NaCl, 125 mM KCl, 50 uM EDTA, 2.5 mM beta-mercaptoethanol, 5% glycerol, BSA, 1.58 uM 47 bp competitor DNA (nucleosome assays); absent w
[12] = target: MeCP2 MBD;histone octamer, acidic patch mutant (Homo sapiens;Homo sapiens, UniProt P51608;P0C0S8;P62807;P68431;P62805 77-167;2-130;2-126;2-136;2-103, |H2A E61A;E91A;E92A;H2B E113A;H3.1 C96S;C110A); experiment: as above
[13] = target: MeCP2 full-length, e2 isoform;histone octamer (Homo sapiens;Homo sapiens, UniProt P51608;P0C0S8;P62807;P68431;P62805 1-486;2-130;2-126;2-136;2-103, |H3.1 C96S;C110A); experiment: EMSA; no competitor DNA; 20 mM HEPES pH 7.5, 75 mM NaCl, 125 mM KCl, 50 uM EDTA, 2.5 mM beta-mercaptoethanol, 5% glycerol, BSA, 1.58 uM 47 bp competitor DNA (nucleosome assays); absent w
[14] = target: T1, MeCP2 MBD;histone octamer; experiment: as above
[15] = target: HisMBP-MeCP2 205-257 (DIR) (Homo sapiens, UniProt P51608 205-257); experiment: EMSA; 20 mM HEPES pH 7.5, 75 mM NaCl, 125 mM KCl, 50 uM EDTA, 2.5 mM beta-mercaptoethanol, 5% glycerol, BSA, 1.58 uM 47 bp competitor DNA (nucleosome assays; absent with free DNA), room temperature 30 min; conditions: protein: recombinant; tags: His-MBP; label: 5' 6-FAM; blunt
HisMBP-MeCP2 258-309 = HisMBP-MeCP2 258-309 (Homo sapiens, UniProt P51608 258-309); experiment: as above; conditions: protein: recombinant; tags: His-MBP; label: 5' 6-FAM; blunt
HisMBP-MeCP2 272-309 = HisMBP-MeCP2 272-309 (Homo sapiens, UniProt P51608 272-309); experiment: as above; conditions: protein: recombinant; tags: His-MBP; label: 5' 6-FAM; blunt
[16] = target: HisMBP-DNMT3A 1-427 K54A K56A (UniProt Q9Y6K1 1-427, K54A;K56A); experiment: as above; conditions: protein: recombinant; tags: His-MBP; label: 5' 6-FAM; blunt
HisMBP-MeCP2 205-309 = HisMBP-MeCP2 205-309 (Homo sapiens, UniProt P51608 205-309); experiment: as above; conditions: protein: recombinant; tags: His-MBP; label: 5' 6-FAM; blunt
HisMBP-MeCP2 162-309 = HisMBP-MeCP2 162-309 (Homo sapiens, UniProt P51608 162-309); experiment: as above; conditions: protein: recombinant; tags: His-MBP; label: 5' 6-FAM; blunt
HisMBP-DNMT3A 1-427 = HisMBP-DNMT3A 1-427 (UniProt Q9Y6K1 1-427); experiment: as above; conditions: protein: recombinant; tags: His-MBP; label: 5' 6-FAM; blunt
Sequence of HisMBP-DNMT3A 1-427 (Q9Y6K1 1-427): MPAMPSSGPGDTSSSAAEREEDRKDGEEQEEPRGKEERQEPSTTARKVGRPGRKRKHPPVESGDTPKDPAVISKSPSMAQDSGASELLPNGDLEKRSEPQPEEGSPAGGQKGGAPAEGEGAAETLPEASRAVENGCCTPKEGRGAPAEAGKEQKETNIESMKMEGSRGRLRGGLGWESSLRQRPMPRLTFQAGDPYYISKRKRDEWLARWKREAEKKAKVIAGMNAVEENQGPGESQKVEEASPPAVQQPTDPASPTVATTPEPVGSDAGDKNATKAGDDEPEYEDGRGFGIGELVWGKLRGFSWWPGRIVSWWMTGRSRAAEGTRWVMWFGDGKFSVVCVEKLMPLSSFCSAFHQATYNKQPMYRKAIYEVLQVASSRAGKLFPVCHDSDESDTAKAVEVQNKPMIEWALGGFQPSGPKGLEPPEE

Sequence of HisMBP-DNMT3A 1-427 K54A K56A (Q9Y6K1 1-427 K54A/K56A): as the sequence (Q9Y6K1 1-427) above, with K54A, K56A counted along it

B1: 15-N601-15 nucleosome 81 meCpA (nucleosome)
DNA 1: ATGGAACACATTGCACAGGATGTATATATCTGACACGTGCCTGGAGACTAGGGAGTAATCCCCTTGGCGGTTAAAACGCGGGGGACAGCGCGTACGTGCGTTTAAGCGGTGCTAGAGCTGTCTACGACCAATTGAGCGGCCTCGGCACCGGGATTCTCCAGGGCGGCCGCGTATT
DNA 2: AATACGCGGCCGCCCTGGAGAATCCCGGTGCCGAGGCCGCTCAATTGGTCGTAGACAGCTCTAGCACCGCTTAAACGCACGTACGCGCTGTCCCCCGCGTTTTAACCGCCAAGGGGATTACTCCCTAGTCTCCAGGCACGTGTCAGATATATACATCCTGTGCAATGTGTTCCAT
modifications: linker meCpA 81 bp from dyad
- Kd [1]: 424 nM
- Kd [2]: 141 nM
- Kd [3]: 295 nM
- Kd [4]: 334 nM
- Kd [5]: 382 nM
- Kd [6]: 442 nM

B2: N601 nucleosome core particle -1 meCpG (nucleosome)
DNA 1: CAGGATGTATATATCTGACACGTGCCTGGAGACTAGGGAGTAATCCCCTTGGCGGTTAAAACGCGGGGGACAGCGCGTACGTGCGTTTAAGCGGTGCTAGAGCTGTCTACGACCAATTGAGCGGCCTCGGCACCGGGATTCTCCA
DNA 2: TGGAGAATCCCGGTGCCGAGGCCGCTCAATTGGTCGTAGACAGCTCTAGCACCGCTTAAACGCACGTACGCGCTGTCCCCCGCGTTTTAACCGCCAAGGGGATTACTCCCTAGTCTCCAGGCACGTGTCAGATATATACATCCTG
modifications: meCpG at -1
- binding result [2]: no binding
- Kd [7]: 56.8 nM
- Kd [8]: 85.5 nM
- Kd [9]: 29.2 nM
- Kd [10]: 35.5 nM
- Kd [11]: 49.7 nM
- Kd [12]: 51.5 nM
- Kd [13]: 44.2 nM
- Kd [14]: 50.7 nM

B3: 40 bp dsDNA (dsDNA)
DNA 1: AATACGCGGCCGCCCTGGAGAATCCCGGTGCCGAGGCCGC
DNA 2: GCGGCCTCGGCACCGGGATTCTCCAGGGCGGCCGCGTATT
- Kd [15]: 216 ± 9.2 nM
- Kd (HisMBP-MeCP2 258-309): 167 ± 8.5 nM
- binding result (HisMBP-MeCP2 272-309): no binding
- Kd [16]: 367 ± 27.5 nM
- Kd (HisMBP-MeCP2 205-309): 77.5 ± 4.8 nM
- Kd (HisMBP-MeCP2 162-309): 31.6 ± 1.7 nM
- Kd (HisMBP-DNMT3A 1-427): 87.8 ± 5.2 nM
